{
  "source": "IntAct's records for PubMed 35512704",
  "parents": {"B1": {"name": "Speckle-type POZ protein (Homo sapiens), O43791 (parent)", "chain": "MSRVPSPPPPAEMSSGPVAESWCYTQIKVVKFSYMWTINNFSFCREEMGEVIKSSTFSSGANDKLKWCLRVNPKGLDEESKDYLSLYLLLVSCPKSEVRAKFKFSILNAKGEETKAMESQRAYRFVQGKDWGFKKFIRRDFLLDEANGLLPDDKLTLFCEVSVVQDSVNISGQNTMNMVKVPECRLADELGGLWENSRFTDCCLCVAGQEFQAHKAILAARSPVFSAMFEHEMEESKKNRVEINDVEPEVFKEMMCFIYTGKAPNLDKMADDLLAAADKYALERLKVMCEDALCSNLSVENAAEILILADLHSADQLKTQAVDFINYHASDVLETSGWKSMVVSHPHLVAEAYRSLASAQCPFLGPPRKRLKQS"}},
  "data": [
    {"variants_of": "B1", "conditions": "with nox1_human NOX1, Q9Y5S8", "values": [
      {"variant": "Y87C", "effect of a mutation on the interaction": "with no effect"}
    ]},
    {"variants_of": "B1", "conditions": "with ntrk2_human NTRK2, Q16620", "values": [
      {"variant": "Y87C", "effect of a mutation on the interaction": "with no effect"}
    ]},
    {"variants_of": "B1", "conditions": "with ntrk3_human NTRK3, Q16288", "values": [
      {"variant": "Y87C", "effect of a mutation on the interaction": "with no effect"}
    ]},
    {"variants_of": "B1", "conditions": "with pak3_human PAK3, O75914", "values": [
      {"variant": "Y87C", "effect of a mutation on the interaction": "with no effect"}
    ]},
    {"variants_of": "B1", "conditions": "with prkn_human PRKN", "values": [
      {"variant": "Y87C", "effect of a mutation on the interaction": "with no effect"}
    ]},
    {"variants_of": "B1", "conditions": "with pb1_human PBRM1, Q86U86", "values": [
      {"variant": "Y87C", "effect of a mutation on the interaction": "with no effect"}
    ]},
    {"variants_of": "B1", "conditions": "with pcbp1_human PCBP1, Q15365", "values": [
      {"variant": "Y87C", "effect of a mutation on the interaction": "with no effect"}
    ]},
    {"variants_of": "B1", "conditions": "with pdcd1_human PDCD1, Q15116", "values": [
      {"variant": "Y87C", "effect of a mutation on the interaction": "with no effect"}
    ]},
    {"variants_of": "B1", "conditions": "with pgfrb_human PDGFRB", "values": [
      {"variant": "Y87C", "effect of a mutation on the interaction": "with no effect"}
    ]},
    {"variants_of": "B1", "conditions": "with pdk1_human PDK1, Q15118", "values": [
      {"variant": "Y87C", "effect of a mutation on the interaction": "with no effect"}
    ]},
    {"variants_of": "B1", "conditions": "with PIK3C2B", "values": [
      {"variant": "Y87C", "effect of a mutation on the interaction": "with no effect"}
    ]},
    {"variants_of": "B1", "conditions": "with pk3cb_human PIK3CB", "values": [
      {"variant": "Y87C", "effect of a mutation on the interaction": "with no effect"}
    ]},
    {"variants_of": "B1", "conditions": "with pk3cg_human PIK3CG", "values": [
      {"variant": "Y87C", "effect of a mutation on the interaction": "with no effect"}
    ]},
    {"variants_of": "B1", "conditions": "with p85b_human PIK3R2, O00459", "values": [
      {"variant": "Y87C", "effect of a mutation on the interaction": "with no effect"}
    ]},
    {"variants_of": "B1", "conditions": "with dpod1_human POLD1, P28340", "values": [
      {"variant": "Y87C", "effect of a mutation on the interaction": "with no effect"}
    ]},
    {"variants_of": "B1", "conditions": "with dpoe1_human POLE", "values": [
      {"variant": "Y87C", "effect of a mutation on the interaction": "with no effect"}
    ]},
    {"variants_of": "B1", "conditions": "with ppard_human PPARD", "values": [
      {"variant": "Y87C", "effect of a mutation on the interaction": "with no effect"}
    ]},
    {"variants_of": "B1", "conditions": "with prdm1_human PRDM1, O75626", "values": [
      {"variant": "Y87C", "effect of a mutation on the interaction": "with no effect"}
    ]},
    {"variants_of": "B1", "conditions": "with prex2_human PREX2, Q70Z35", "values": [
      {"variant": "Y87C", "effect of a mutation on the interaction": "with no effect"}
    ]},
    {"variants_of": "B1", "conditions": "with aapk2_human PRKAA2, P54646", "values": [
      {"variant": "Y87C", "effect of a mutation on the interaction": "with no effect"}
    ]},
    {"variants_of": "B1", "conditions": "with prss8_human PRSS8, Q16651", "values": [
      {"variant": "Y87C", "effect of a mutation on the interaction": "with no effect"}
    ]},
    {"variants_of": "B1", "conditions": "with ptk6_human PTK6, Q13882", "values": [
      {"variant": "Y87C", "effect of a mutation on the interaction": "with no effect"}
    ]},
    {"variants_of": "B1", "conditions": "with tf65_human RELA", "values": [
      {"variant": "Y87C", "effect of a mutation on the interaction": "with no effect"}
    ]},
    {"variants_of": "B1", "conditions": "with rictr_human RICTOR", "values": [
      {"variant": "Y87C", "effect of a mutation on the interaction": "with no effect"}
    ]},
    {"variants_of": "B1", "conditions": "with rnf43_human RNF43, Q68DV7", "values": [
      {"variant": "Y87C", "effect of a mutation on the interaction": "with no effect"}
    ]},
    {"variants_of": "B1", "conditions": "with ros1_human ROS1, P08922", "values": [
      {"variant": "Y87C", "effect of a mutation on the interaction": "with no effect"}
    ]},
    {"variants_of": "B1", "conditions": "with rl11_human RPL11, P62913", "values": [
      {"variant": "Y87C", "effect of a mutation on the interaction": "with no effect"}
    ]},
    {"variants_of": "B1", "conditions": "with rl5_human RPL5, P46777", "values": [
      {"variant": "Y87C", "effect of a mutation on the interaction": "with no effect"}
    ]},
    {"variants_of": "B1", "conditions": "with rs15_human RPS15, P62841", "values": [
      {"variant": "Y87C", "effect of a mutation on the interaction": "with no effect"}
    ]},
    {"variants_of": "B1", "conditions": "with rs2_human RPS2, P15880", "values": [
      {"variant": "Y87C", "effect of a mutation on the interaction": "with no effect"}
    ]},
    {"variants_of": "B1", "conditions": "with rptor_human RPTOR", "values": [
      {"variant": "Y87C", "effect of a mutation on the interaction": "with no effect"}
    ]},
    {"variants_of": "B1", "conditions": "with rxra_human RXRA", "values": [
      {"variant": "Y87C", "effect of a mutation on the interaction": "with no effect"}
    ]},
    {"variants_of": "B1", "conditions": "with sdha_human SDHA", "values": [
      {"variant": "Y87C", "effect of a mutation on the interaction": "with no effect"}
    ]},
    {"variants_of": "B1", "conditions": "with setbp_human SETBP1, Q9Y6X0", "values": [
      {"variant": "Y87C", "effect of a mutation on the interaction": "with no effect"}
    ]},
    {"variants_of": "B1", "conditions": "with setb1_human SETDB1, Q15047", "values": [
      {"variant": "Y87C", "effect of a mutation on the interaction": "with no effect"}
    ]},
    {"variants_of": "B1", "conditions": "with skp2_human SKP2, Q13309", "values": [
      {"variant": "Y87C", "effect of a mutation on the interaction": "with no effect"}
    ]},
    {"variants_of": "B1", "conditions": "with smad1_human SMAD1, Q15797", "values": [
      {"variant": "Y87C", "effect of a mutation on the interaction": "with no effect"}
    ]},
    {"variants_of": "B1", "conditions": "with smca4_human SMARCA4, P51532", "values": [
      {"variant": "Y87C", "effect of a mutation on the interaction": "with no effect"}
    ]},
    {"variants_of": "B1", "conditions": "with snf5_human SMARCB1, Q12824", "values": [
      {"variant": "Y87C", "effect of a mutation on the interaction": "with no effect"}
    ]},
    {"variants_of": "B1", "conditions": "with smo_human SMO", "values": [
      {"variant": "Y87C", "effect of a mutation on the interaction": "with no effect"}
    ]},
    {"variants_of": "B1", "conditions": "with smuf1_human SMURF1, Q9HCE7", "values": [
      {"variant": "Y87C", "effect of a mutation on the interaction": "with no effect"}
    ]},
    {"variants_of": "B1", "conditions": "with socs1_human SOCS1, O15524", "values": [
      {"variant": "Y87C", "effect of a mutation on the interaction": "with no effect"}
    ]},
    {"variants_of": "B1", "conditions": "with sox10_human SOX10, P56693", "values": [
      {"variant": "Y87C", "effect of a mutation on the interaction": "with no effect"}
    ]},
    {"variants_of": "B1", "conditions": "with sox2_human SOX2, P48431", "values": [
      {"variant": "Y87C", "effect of a mutation on the interaction": "with no effect"}
    ]},
    {"variants_of": "B1", "conditions": "with src_human SRC", "values": [
      {"variant": "Y87C", "effect of a mutation on the interaction": "with no effect"}
    ]},
    {"variants_of": "B1", "conditions": "with whr1_human WHR1, P49842", "values": [
      {"variant": "Y87C", "effect of a mutation on the interaction": "with no effect"}
    ]},
    {"variants_of": "B1", "conditions": "with stk38_human STK38, Q15208", "values": [
      {"variant": "Y87C", "effect of a mutation on the interaction": "with no effect"}
    ]},
    {"variants_of": "B1", "conditions": "with eloc_human ELOC", "values": [
      {"variant": "Y87C", "effect of a mutation on the interaction": "with no effect"}
    ]},
    {"variants_of": "B1", "conditions": "with tfe2_human TCF3, P15923", "values": [
      {"variant": "Y87C", "effect of a mutation on the interaction": "with no effect"}
    ]},
    {"variants_of": "B1", "conditions": "with tead1_human TEAD1, P28347", "values": [
      {"variant": "Y87C", "effect of a mutation on the interaction": "with no effect"}
    ]},
    {"variants_of": "B1", "conditions": "with tead3_human TEAD3, Q99594", "values": [
      {"variant": "Y87C", "effect of a mutation on the interaction": "with no effect"}
    ]},
    {"variants_of": "B1", "conditions": "with tead4_human TEAD4, Q15561", "values": [
      {"variant": "Y87C", "effect of a mutation on the interaction": "with no effect"}
    ]},
    {"variants_of": "B1", "conditions": "with tet2_human TET2, Q6N021", "values": [
      {"variant": "Y87C", "effect of a mutation on the interaction": "with no effect"}
    ]},
    {"variants_of": "B1", "conditions": "with tgfr2_human TGFBR2, P37173", "values": [
      {"variant": "Y87C", "effect of a mutation on the interaction": "with no effect"}
    ]},
    {"variants_of": "B1", "conditions": "with tnr14_human TNFRSF14, Q92956", "values": [
      {"variant": "Y87C", "effect of a mutation on the interaction": "with no effect"}
    ]},
    {"variants_of": "B1", "conditions": "with tsc2_human TSC2, P49815", "values": [
      {"variant": "Y87C", "effect of a mutation on the interaction": "with no effect"}
    ]},
    {"variants_of": "B1", "conditions": "with tshr_human TSHR", "values": [
      {"variant": "Y87C", "effect of a mutation on the interaction": "with no effect"}
    ]},
    {"variants_of": "B1", "conditions": "with vegfa_human VEGFA", "values": [
      {"variant": "Y87C", "effect of a mutation on the interaction": "with no effect"}
    ]},
    {"variants_of": "B1", "conditions": "with vhl_human VHL", "values": [
      {"variant": "Y87C", "effect of a mutation on the interaction": "with no effect"}
    ]},
    {"variants_of": "B1", "conditions": "with wee1_human WEE1, P30291", "values": [
      {"variant": "Y87C", "effect of a mutation on the interaction": "with no effect"}
    ]},
    {"variants_of": "B1", "conditions": "with wwtr1_human WWTR1, Q9GZV5", "values": [
      {"variant": "Y87C", "effect of a mutation on the interaction": "with no effect"}
    ]},
    {"variants_of": "B1", "conditions": "with xpo1_human XPO1, O14980", "values": [
      {"variant": "Y87C", "effect of a mutation on the interaction": "with no effect"}
    ]},
    {"variants_of": "B1", "conditions": "with il7ra_human IL7R", "values": [
      {"variant": "Y87C", "effect of a mutation on the interaction": "increasing interaction strength"}
    ]}
  ]
}
